B1: TPR t1 (parent)
chain: GACCAAUCUGCCCUCAGAGCUCGAGAACAUCUUCGGAUGCAGAGGAGGCAGGCUUCGGUGGCGCGAUAGCGCCAACGUCCUCAACCUCCAAUGCAUCCCACCACAUGAUGAUGCCUGAAGAGCCUUGGUUUUUUG

Variants of: B1
Assay: polymerase ribozyme fitness, log enrichment relative to wild type (log ratio); higher = more active; in vitro selection for triplet polymerase activity
Method in brief: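 Mutant libraries of each subunit of a heterodimeric triplet polymerase ribozyme were built by PCR and transcribed. Each library went through one round of in vitro selection in triplicate: annealing with biotinylated primer, partner subunit and triplets, frozen incubation at −7 °C, gel excision of extended constructs, streptavidin-bead capture and RT-PCR. Input and output libraries were Illumina-sequenced; only genotypes with ≥10 input reads and ≥1 read per output were kept. Fitness is log2(genotype enrichment/wild-type enrichment), using inverse-variance-weighted replicate averages.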

Variant | polymerase ribozyme fitness (log ratio)
GACCAAUCUGCCCUCAGAGCUCGAGAACAUCUUCGGAUGCAGAGGAGGCAGGCUUCGGUGGCGCGAUAGCGCCAACGUCUUCAACCUCCAAUGCAUCCCACCACAUGAUGAUGCCUGAAGAGCCUUGGUUAUUUG [C80U U131A] | -0.732
GACCAAUCUGCCCUCAGAGCUCGAGAACAUCUUCGGAUGCAGAGGAGGCAGGCUUCGGUGGCGCGAUAGCGCCAACGUCCUCAACCUCCAAUGCAUCCCACCACAUGAUGAAGACUGAAGAGCCUUGGUUUUAUG [U112A C114A U133A] | -1.04
GACCAAUCUGCCCUCAGAGCUCGAGAACAUCUUCGGAUGCAGAGGAGGCAGGCUUCGGUGGCGCGAUAGCGCCAACGCCCUCAACCACCAAUGCAUCCCACCACAUGAUGAUGCCUGAAGAGCCUUGGUUUUUUG [U78C U87A] | 1.12
GACCAAUCUGCCCUCAGCGCUCGAGAACAUCUUCGGAUGCAGAGGAGGCAGGCUUCGGUGGCGCGAUAGCUCCAACGUCCUCAACCUCCAAUGCAUCCCACCACAUGAUGAUGCCUGAAGAGCCUUGGUUUUUUG [A18C G71U] | -3.18
GACCAAUCUGCCCUCAGAGCUCGAGAACAUCUUCGGAUGCAGAGGAGGCAGGCUUCGGUGGGGCGAUAGCGCUAACGUCCUCGACCUCCAAUGCAUCCCACCACAUGAUGAUGCCUGAAGAGCCUUGGUUUUUUG [C62G C73U A83G] | -4.25
GACCAAUCUGCCCUCAGACCUCGAGAACAUCUUCGGAUGCAGAGGAGGCAGGCUUCGGUGCCGCGAUAGCGCCAACGUCCUCAACCUACAAUGCAUCCCACCACAUGAUGAUGCCUGAAGAGCCUUGGUUUUUUG [G19C G61C C88A] | -4.49
GACCAAUCUCCACUCAGCGCUCGAGAACAUCUUCGGAUGCAUAGGAGGCAGGCUUCGGUGGCGCGAUAGCACCAACGUCCUCAACCUCCAAUGCAUCCCACCACAUGAUGAUGCCUUAAGAUCCUUGGUGUUUUG [G10C C12A A18C G42U G71A G117U G122U U130G] | -3.23
GACCAAUCUGCCCUCAGAGCUCGAGAGCAUCUUCGGAUGCAGAGGAGGCAGACUUUGGUGGCGCGAUAGCGCCAACGUCCUCAACCUCCAAUGCAUCCCACCACAUGAUGAUGCCUGAAGAGCCUUGGUUUUUUG [A27G G52A C56U] | -2.59
GACCAAGCUGCCCUCAGAGCUCGAGAACAUCUUCGGAUGCAGAGGAGGCAGGCUUCGGUGGCGCGAUAACGCCAACGUCCUCAACCUCCAAUGCAUCCCAUCACAUGAUGAUGCCUGAAGAGCCUUGGUUUUUUG [U7G G69A C101U] | -2.81
GACCAAUCUGCCCUCAGAGCUCGAGAACAUCUUCGGAUGCAGAGGAGGCUGGCUUCGGUGGCGCGAUAGCGCCAACGUCCUCAACCUCCAAUGCAUCCCACCACAUGAUGAUGCCUGAACAGCCUUGGUUUUUUG [A50U G120C] | 0.234
GACCAAUCUGCCCUCAGAGCUCGAGAACAUCUUCGGAUGCAGAGGAGGAAGGCUUCGGUGGCGCGAUAGCGCCCACGUCCUCAACCUCCAAUGUAUCCCACCACAUGAUGAUGCCAGAAGAGCCUUGGUUUUUUG [C49A A74C C94U U116A] | -3.09
GACCUAUCUGCUCUCAGAGCGCGAGACCAUCUUCGGAUGCAGAGGGGGCAGGCUUCGGUGGCGCGAUAGCGCCAACGUCCUCAACCUCCGAUGCAUCCCACCACAUGAUGAUGCCUGAAUAGCCUUGGUUUUUUG [A5U C12U U21G A27C A46G A90G G120U] | -2.99
GACCAAUCUGCCCUCAGAGCUCGAGAACAUCUUCGGAUGCAGAGGAGGCAGGCUUCGGUGGCGCGAUAGCGCCAACGUCCUCAACCUCCAAUGCAUCCCACCACAUGAUGAUGCCUGAACAGCAUUGGUUUUUUG [G120C C124A] | 1.02
GACCAAUCUGCCCUCAGAGCUCGAGAACAUCUUAGGAUGCAGAGGAGGCAGGCUUCGGUGGCGCGAUAGCGCCAACGUCCUCAACCACCGAUGCAUCCCACCACAUGAUGAUGCCUGAAGAGCCUUGGUUUUUUG [C34A U87A A90G] | -2.87
GACCGAUCUGCCCUCAGAGCUAGAGAACAUCUUCGGAUGCAGAGGAGGCAGGCUUCGGUGGCGCGAUAGCGCCAACGUCCUCAACCUCCAAUGCAUCCCACCACAUGAUGAUGCCUGAGGAGCCUUGGUUUUUUG [A5G C22A A119G] | -4.13
GACCAAUCUGCCCUCAGAGCUCGAGAACAUCUUCGUAUGCAGAGGAGGCAGGCUUCGGUGGCGCGAUAGCGCCAAAGUCCUCAACCUCCAAUGCAUCGCACCACAUGACGAUGGCUGAAGAGCCUUGGUUUUUUG [G36U C76A C98G U109C C114G] | -6.07
GACCAAUAUGCGCCCAGAGCUCGAGAACAUCUUCGGAUGCAGAGGAGGCAGGCUUCGGUGGCGCGAUAGCGCUAACCUCCUCAACCUCCAAUGCAUCCCAACACAUGAUGAUGCCUGAAGAGCCUUGGUUUUUUG [C8A C12G U14C C73U G77C C101A] | -1.62
GACCAAUCUGCCCUCAGAGCUCGAGAACAUCUUCGGAUGCUGAGGAGGCAGGCUUCGGUGGCGCGAUAGCGCCAACGUCCUCAACCUCCAAUGCAUCCCACCACAUGAUGAUCCAUGAAGAGCAUUGGUUUUUUG [A41U G113C C115A C124A] | -5.25
GACCAAUCUGCCCUCAGAGCUCGAGAACAUCUUCGGAUGCAGAGGAUGCAGGCUCAGGUGGCGCGAUAGCGCGAACGUCCUCAACCUCCAAUGCAUCCCACCACAUGAUGAUGCCUGAAGAGCCUUGGUUUUUUG [G47U U55C C56A C73G] | -4.04
GACCAAUCUGCUCUCAGAGCUCGAGAACAUCUUCGGAUGCAGAGGAGGCAGGCUUCGGUGGCGCGAUAGCGCCAACGUCCUCAACCUCCAAUGCAUCCCACCACAUGAUGAUGCCUGAAGAUCCUUGGUUUUUUG [C12U G122U] | 1.06
GACCAAUCUGCCCUCAGAGCUCGAGAACAUCUUCGGAUGCAGAGGAGGCAGGCUUCGGUGGCGCGAUAGCGCCAACGUCCUCAACCUCCAAUACAUCCCACCACAUGAUGAAGCCUGAAGAGCCUUGGUUUUUUG [G93A U112A] | 0.918

From the RNAGym collection of RNA variant scans (doi:10.1073/pnas.2313332121)
